In the nanobody polyreactivity screen of Harvey et al. (2022):

Test: yeast display, Sf9 membrane polyspecificity reagent, FACS + sequencing; frameworks hold sequencing errors
Procedure, shortened: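 Galactose induction of a Saccharomyces cerevisiae BJ5465 synthetic nanobody display library ran 36–48 hours. The cells were then stained for 1 hour at 4 °C with 10% biotinylated, detergent-solubilized Sf9 membrane reagent, pulled down on streptavidin microbeads and FACS-sorted into low and high (top ~1%) gates on expression and reagent-binding fluorescence. Labels for polyreactivity follow the gate of origin.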

**Q.** For “QVQLVESGGGLVQAGGSLRLSSAASGRIFHPYAMGWYRPAPGQERELVAAITNSGGITYADSVKGRFTISRGNAKNTVYLQMNSLKPEDTAVYYCNTATNRFHYKYRKPYDYWGQGTQVTVSS”, which “polyreactivity (PSR sort gate)” value is on record?
**A.** low polyreactivity

**Q.** For “QVQLVESGGGLVQAGGSLRLSSAASGRIFKRYTMGSYRQAPGKERELVAANTKRADRTNYADSVNGRFTISRDNAKNTVYLQMNSLKAVDTAVYYCNAEGQNDHPSNGYISYNYDYWGQGTQVTVSS”, which “polyreactivity (PSR sort gate)” value is on record?
**A.** low polyreactivity

**Q.** For “QVQLVESGGGLVQAGGSLRLSSAASGRIFQLYTMGWYRQAPGKEREMVAAITSGTSTSYADSVKGRFTISRDNAKNSVYLQMNSLKPEDTAVYYCNKGSVSYCSVFVPYESDYWGQGTQVTVSS”, which “polyreactivity (PSR sort gate)” value is on record?
**A.** low polyreactivity

**Q.** With “QVQLVESGGGLVQAGGSLRLSSAASGRIFRINAMGWYRQAPGKERELVADITSGGSTNYADSVKGRFTISRDNAKNTVYLQMNSLKPEDTAVYYCAAAYVTYRTRLDYWGQGTQVTVSS” as the sequence, how does the “polyreactivity (PSR sort gate)” value read?
**A.** low polyreactivity

**Q.** Which “polyreactivity (PSR sort gate)” value does the source give for “QVQLVESGGGLVQAGGSLRLSSAASGRIFRPYDMGWYRQAPGKERELVAAITQSGGITSYADSVKGRFTISRDNAMNTVYLQMNSLTPEDTAVYYCASTSRYTRSHYDWYDYWGQGTQVTVSS” here?
**A.** low polyreactivity

**Q.** With “QVQLVESGGGLVQAGGSLRLSSAASGRIFRRNTMGWYRQAPGKERELVAAITYSGGSTYYADSVKGRFTISRDNAKNTVYLQMNSLKPEDTAVYYCAADTGFYYWYDYWGQGTQVTVSS” as the sequence, how does the “polyreactivity (PSR sort gate)” value read?
**A.** low polyreactivity

**Q.** With “QVQLVESGGGLVQAGGSLRLSSAASGRIFSDNVMGWYRQAPGKERELVATITSTGGTYYADSVKGRFTISRDNAKNTVYLQMNSLKPEDTAVYYCNKATLADWWLYPRYNYWGQGTQVTVSS” as the sequence, how does the “polyreactivity (PSR sort gate)” value read?
**A.** low polyreactivity

**Q.** For “QVQLVESGGGLVQAGGSLRLSSAASGRIFSINVMGWYRHAPGKERELVAAISKRGGSTYYADSVKGRFTISRDNAKNTVYLQMNSLKPEDTAVYYCAVDRYSTDRVKTSYGYDYWGQGTQVTVSS”, which “polyreactivity (PSR sort gate)” value is on record?
**A.** high polyreactivity

**Q.** For “QVQLVESGGGLVQAGGSLRLSSAASGRIFTINAMGWYRQAPGKERELFASSRSTGGSTYYADSVKGRFTISRDNAKNTFYLQMYSLKPVDTAVYYCDAQYANSIDYRSSYRRDYWGQGTQVTVSS”, which “polyreactivity (PSR sort gate)” value is on record?
**A.** low polyreactivity

**Q.** For “QVQLVESGGGLVQAGGSLRLSSAASGRIFYFNARGWYRQAPGKARELVAGISSGGSTDYADSVKGRFTISRDNAKNTVDLQMNSLKPEDTAVYYCATRRSRYSYSGYWGQATQVTVSS”, which “polyreactivity (PSR sort gate)” value is on record?
**A.** high polyreactivity

**Q.** With “QVQLVESGGGLVQAGGSLRLSSAASGRIFYRNAMGWYRQAPGKERELVASITSGGRTNYADSVKGRFTFSRDNAKNTVYLHMNSLKPEDTAVYYCAAPPPYSVRTFRFYYWGQGTQVTVSA” as the sequence, how does the “polyreactivity (PSR sort gate)” value read?
**A.** high polyreactivity

**Q.** For “QVQLVESGGGLVQAGGSLRLSSAASGRTFEGYAMGWYRQAPGKERELVAAISGSSGSTYYADSVKGRFTISRDNAKNTVYLQMNSLKPEDTAVYYCNADYDWPGGSDYWGQGTQVTVSS”, which “polyreactivity (PSR sort gate)” value is on record?
**A.** low polyreactivity

**Q.** For “QVQLVESGGGLVQAGGSLRLSSAASGRTFFGYAMGCYRQAPGTERELVAVISYSDGSTYYADSVKGRFTISRDNAKNTVYLQMNSLKPEDTAVYYCNARSRVGNSGADYDYWGQGTQETVSS”, which “polyreactivity (PSR sort gate)” value is on record?
**A.** low polyreactivity

**Q.** For “QVQLVESGGGLVQAGGSLRLSSAASGRTFGFYAMGCYRQAHGKERELVATISSSGGSTYYADSVKGRFTISRDNAKNTVYLQMNRLTPEDTAVYYCAKVVSVWRSHYIGDYWGQGSQVTVSS”, which “polyreactivity (PSR sort gate)” value is on record?
**A.** low polyreactivity

**Q.** With “QVQLVESGGGLVQAGGSLRLSSAASGRTFGKYAMGWYRQAPGKESELVAAITNSGGSTYYADSVKGRFTISRDNAKNTVYLQMISLKPEDTAVYYCNRLGYRGPSILNHMGYWGQGTQVTVSS” as the sequence, how does the “polyreactivity (PSR sort gate)” value read?
**A.** high polyreactivity

**Q.** Which “polyreactivity (PSR sort gate)” value does the source give for “QVQLVESGGGLVQAGGSLRLSSAASGRTFPTYTIGGYRQAPGKERELVAAITRGGSTKYADSVKGRFTISRDNAKNTVYLQMNSLKPEDTAVYYCAAVYRYRHSFAYYRHEMDYWGQGTQVTVSS” here?
**A.** low polyreactivity

**Q.** With “QVQLVESGGGLVQAGGSLRLSSAASGRTFSRYVMGWSRQAPGKERELVATISRSGGSTFYADSVKGRFTISRDNAKNTVYLQMNSLKPEDTAVYYCNKKVQGYQVTYGYWGQGTQVTVSS” as the sequence, how does the “polyreactivity (PSR sort gate)” value read?
**A.** high polyreactivity
